T1: MCT1 (Homo sapiens, UniProt P53985)
T1 construct: HEK-293 WT cells only express MCT1/CD147 and no other MCTs as measured by RT-PCR; endogenous in cells; host or cells: HEK293T
T1 sequence (P53985 1-500): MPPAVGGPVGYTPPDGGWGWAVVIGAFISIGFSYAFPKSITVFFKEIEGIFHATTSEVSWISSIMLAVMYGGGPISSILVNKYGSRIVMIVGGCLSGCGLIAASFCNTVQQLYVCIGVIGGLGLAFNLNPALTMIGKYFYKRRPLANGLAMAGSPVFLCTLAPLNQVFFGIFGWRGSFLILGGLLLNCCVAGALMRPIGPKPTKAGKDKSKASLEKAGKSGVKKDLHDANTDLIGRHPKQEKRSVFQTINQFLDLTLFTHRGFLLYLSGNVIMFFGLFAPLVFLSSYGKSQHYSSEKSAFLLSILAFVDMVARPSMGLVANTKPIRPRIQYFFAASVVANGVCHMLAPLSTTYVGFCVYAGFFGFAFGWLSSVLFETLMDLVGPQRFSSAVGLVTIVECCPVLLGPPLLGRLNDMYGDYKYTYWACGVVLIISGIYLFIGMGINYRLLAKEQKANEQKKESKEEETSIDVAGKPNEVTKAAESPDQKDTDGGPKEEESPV


Tests used:
Tr1 cells = assay: ex vivo Tr1 survival; assay type: cell-based, human
Procedure: Humanized NSG mice (treated with anti-MCT1) were sacrificed on d32 or other day specified, single cells suspensions were prepared from spleens, followed by bead-based enrichment of hCD3+ cells. Isolated cells were plated with the analytes (see above table) to access Tr1 survival: […]

MCT1 = molecular target: T1, MCT1; assay: bromopyruvate toxicity assay (ATPlite); assay type: cell-based
Procedure: Inhibition of bromopyruvate toxicity. Since MCT1 is the sole transporter necessary for the in vitro efficacy of the anti-cancer toxin bromopyruvate (Reference 66), a second cell-based functional assay was developed to measure the in vitro killing of cells using this toxin at a concentration of 150 μM.
HEK293T cells are pre-treated with anti-MCT1 antibody or small molecular MCT1 inhibitor at 37° C. for 1 hour. Cells are then incubated with a cytotoxic reagent 3-bromopyruvate (3-BrPy) at concentrations that rand from 25 to 500 μM for 2 to 6 hours. ATP from dying cells will be quantified using a commercial viability kit (ATPlite, PerkinElmer) in a 96-well plate and viability measured using luminescence. Reduction of ATP production indicates functionality of the antibody. A positive control antibody is the mouse or chimeric antibody before humanization. A negative control cell line is MCT1/CD147 double knockout 293T cells. Using this assay functional, i.e., antagonistic anti-MCT1 antibodies may be identified.

| Molecule | ex vivo Tr1 survival (Tr1 cells) | block of human MCT1 function (MCT1) |
| --- | --- | --- |
| IL-15: Recombinant Human IL-15 (carrier-free), Biolegend 570304 | increased ex vivo Tr1 survival in a dose-dependent manner |  |
| LM183: chicken anti-human MCT1 antibody; HC/LC SEQ ID NO: 164/169 (antibody, HC Protein; LC Protein) heavy: AVTLDESGGGLQTPGGTLSLVCKASGFDFSNYEMLWVRQAPGKGLEYVAGIGDSASYSAYGVAVKGRATISRDNGQSTLRLQLNGLRAEDTGTYYCTKASEGSYWYYEAGGIDTWGHGTEVIVSS light: ALTQPSSVSANLGGTVKITCSGGGGSYGWYQQKSPGSAPVTVIYDNDKRPSDIPSRFSGSKSGSTATLTITGVRAEDEAVYYCGSAGNSGAFGAGTTLTVL |  | block human MCT1 function |
| IL-7: Recombinant Human IL-7 (carrier-free), Biolegend 581904 (protein, UniProt P13232 26-177, looked up) Interleukin-7: DCDIEGKDGKQYESVLMVSIDQLLDSMKEIGSNCLNNEFNFFKRHICDANKEGMFLFRAARKLRQFLKMNSTGDFDLHLLKVSEGTTILLNCTGQVKGRKPAALGEAQPTKSLEENKSLKEQKKLNDLCFLKRLLQEIKTCWNKILMGTKEH | increased ex vivo Tr1 survival in a dose-dependent manner |  |
| LM186: chicken anti-human MCT1 antibody; HC/LC SEQ ID NO: 184/189 (antibody, HC Protein; LC Protein) heavy: AVTLDESGGGLQTPGGGLSLVCKASGFSFSSRGMFWVRQAPGKGLEYVAGIDNDGGYPNYGSAVKGRATISRDNRQSTVRLQLNNLRADDTGTYYCAKGAYGGGWYAASSIDAWGHGTEVIVSS light: ALTQPSSVSANPGEAVKITCSGGVGQWYGWFQQKAPGSAPVTVIHDNTNRPSDIPSRFSGSKSGSTGTLTITGVQAEDEAVYFCANTYSDGNDAPFGAGTTLTVL |  | block human MCT1 function |

Source: patent publication US12649783B2, “Anti-MCT1 antibodies and uses thereof” (IMMUNEXT INC., priority 2018, dated 2026)
